Broadly, the Kd is the constant that tells how readily two partners part at equilibrium.

From patent US20190276502A1 (OXFORD UNIVERSITY INNOVATION, published 2019) come the findings set out here.

Experiment [1] deals with T1, Recombinant His-tagged EapH2 protein (MAP domain of S. aureus EapH2) (Staphylococcus aureus Newman, UniProt A0A0H3K729 24-144).
T1 construct: Made in E. coli and used as the soluble His-tagged ligand; not shown: N-terminal His-tag and 3C protease site from vector pOPIN-F
T1 sequence: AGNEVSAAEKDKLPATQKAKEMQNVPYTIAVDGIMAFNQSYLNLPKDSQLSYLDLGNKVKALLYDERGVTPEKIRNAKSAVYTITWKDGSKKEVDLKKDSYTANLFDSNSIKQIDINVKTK
The experiment can be described thus: plate interaction assay (EIA): untagged protein immobilised, His-tagged ligand titrated, anti-His alkaline phosphatase detection.

Experiment [2] deals with T2, Recombinant Eap protein (C-terminal MAP domain and adjacent basic region of S. aureus Eap), His tag excised (Staphylococcus aureus Newman, UniProt A6QIG2 481-584).
T2 construct: The tag was removed with HRV 3C protease before coating on the plate; also called immobilized Eap; untagged Eap
T2 sequence: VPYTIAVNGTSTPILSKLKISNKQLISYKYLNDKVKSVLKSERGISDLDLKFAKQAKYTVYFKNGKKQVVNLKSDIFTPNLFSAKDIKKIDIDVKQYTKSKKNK
Nature of the experiment: plate interaction assay (EIA): untagged protein immobilised, His-tagged ligand titrated, anti-His alkaline phosphatase detection, Kd by non-linear regression.

The target of experiment [3] is T3, Recombinant EapH2 protein (MAP domain of S. aureus EapH2), His tag excised (Staphylococcus aureus Newman, UniProt A0A0H3K729 24-144).
T3 construct: The N-terminal His-tag was removed with HRV 3C protease; also called immobilized EapH2; untagged EapH2
T3 sequence: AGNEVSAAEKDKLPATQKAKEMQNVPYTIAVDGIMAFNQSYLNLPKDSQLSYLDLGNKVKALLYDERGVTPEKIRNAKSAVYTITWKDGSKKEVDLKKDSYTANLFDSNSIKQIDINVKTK
Described as above.

B1: Recombinant EapH1 protein (MAP domain of S. aureus EapH1), His tag excised (other)
chain: PSHEASADSNNGYKEMTVDGYHTVPYTISVDGITALHRTYFIFPENKNVLYQEIDSKVKNELASQRGVTTEKINNAQTATYTLTLNDGNKKVVNLKKNDDAKNSIDPSTIKQIQIVVK
notes: The N-terminal His-tag was removed with HRV 3C protease; also called immobilized EapH1; untagged EapH1
B1: the binding result in experiment [1] is recorded as “binds”.

B2: Recombinant His-tagged Eap protein (C-terminal MAP domain and adjacent basic region of S. aureus Eap) (other)
chain: VPYTIAVNGTSTPILSKLKISNKQLISYKYLNDKVKSVLKSERGISDLDLKFAKQAKYTVYFKNGKKQVVNLKSDIFTPNLFSAKDIKKIDIDVKQYTKSKKNK
notes: not shown: N-terminal His-tag and 3C protease site from vector pOPIN-F
As for B2, the figures for the Kd in experiment [2] and in experiment [3] were 0.08 µM and 0.082 µM, respectively.
